According to patent US20170355765A1 (published 2017):

Molecular target: T1, human TEM8 expressed on CHO or HEK 293 cells (human, UniProt Q9H6X2 33-564)
T1 construct: also called hTEM8; CHO TEM8
Experiment: binding to CHO cells expressing human TEM8

T1 sequence (Q9H6X2 33-564 limits assumed): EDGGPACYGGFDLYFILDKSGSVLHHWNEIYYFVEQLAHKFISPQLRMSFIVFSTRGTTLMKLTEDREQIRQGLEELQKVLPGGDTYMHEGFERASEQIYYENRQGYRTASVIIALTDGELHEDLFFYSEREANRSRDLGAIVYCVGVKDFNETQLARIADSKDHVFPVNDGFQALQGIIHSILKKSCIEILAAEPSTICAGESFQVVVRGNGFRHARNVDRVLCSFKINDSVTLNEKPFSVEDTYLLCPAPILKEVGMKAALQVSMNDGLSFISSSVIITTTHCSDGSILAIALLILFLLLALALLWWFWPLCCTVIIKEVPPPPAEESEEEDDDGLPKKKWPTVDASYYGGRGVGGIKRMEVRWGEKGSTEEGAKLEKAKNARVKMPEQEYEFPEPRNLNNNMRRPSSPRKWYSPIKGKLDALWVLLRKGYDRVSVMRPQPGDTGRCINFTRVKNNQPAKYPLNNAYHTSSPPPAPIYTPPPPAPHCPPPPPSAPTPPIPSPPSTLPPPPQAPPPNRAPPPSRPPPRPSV

B1: antibody drug conjugate including the m825 antibody (in human IgG1 format) conjugated to MMAE (other)
VH: QVQLVQSGAEVKKPGTSVKVSCKVPGYTFSSYAISWVRQAPGQGLEWMGGIIPIFGTTNYAQKFQGRVTITGEESTSTVYMELSSLRSEDTAVYYCARDTDYMFDYWGQGTLVTVSS
VL: SSELTQDPVVSVALGETVSITCQGDNLRDFYASWYQQKPGQAPLLVMYGKNRRPSGIPDRFSGSTSGNTLSLTITGAQAEDEADYYCSSRDNSKHVVFGGGTKVTVL
modifications: MMAE toxin with stretcher unit, Val-Cit peptide cleavage site and spacer, linked to thiol groups formed by partial reduction of inter-chain disulfide bonds (positions not stated)
notes: also called m825-MMAE; m825-MMAE conjugate
binding result: binds
